Each block holds one molecule with its values, some of them ahead of it.
Target: T1, calcineurin (Homo sapiens, UniProt Q08209)
T1 construct: made in house
Test: Isothermal titration calorimetry (ITC) of RCAN1 constructs with calcineurin
Format: binding
Method: Only RCAN1^89-197 (SEQ ID NO: 2) was labeled with NMR active nuclei; calcineurin was unlabeled. […] See, FIG. 2.
Affinity of each RCAN1 construct for calcineurin was measured using ITC to determine the individual contribution of each motif to binding. […] See, FIG. 2A.
The CNB subunit was analyzed to determine whether the subunit influences binding by generating a construct of only the calcineurin catalytic domain, CNAcat containing residues 1-348, and identical to a previously characterized CNA construct. See, Takeuchi et al., Structure 15, 587-97 (2007).
To determine how the TxxP (SEQ ID NO: 11) motif binds and engages calcineurin, the residues within and surrounding the TxxP (SEQ ID NO: 11) motif were mutated (i.e. K182A/E, Q185A, E190R/A, Y191A) and ITC was used to quantify which residues are most critical for calcineurin binding. ITC was used to determine whether the TxxP (SEQ ID NO: 11) motif binds only the CNA catalytic domain, or also requires CNB for binding using RCAN1^128-197, without requiring the LxVP (SEQ ID NO: 10) motif. Calcineurin active site residues were mutated as follows: R122A/D, H151A, D118A, R254A/D; and the change in affinity was quantified.

T1 sequence (Q08209 1-391 limits assumed): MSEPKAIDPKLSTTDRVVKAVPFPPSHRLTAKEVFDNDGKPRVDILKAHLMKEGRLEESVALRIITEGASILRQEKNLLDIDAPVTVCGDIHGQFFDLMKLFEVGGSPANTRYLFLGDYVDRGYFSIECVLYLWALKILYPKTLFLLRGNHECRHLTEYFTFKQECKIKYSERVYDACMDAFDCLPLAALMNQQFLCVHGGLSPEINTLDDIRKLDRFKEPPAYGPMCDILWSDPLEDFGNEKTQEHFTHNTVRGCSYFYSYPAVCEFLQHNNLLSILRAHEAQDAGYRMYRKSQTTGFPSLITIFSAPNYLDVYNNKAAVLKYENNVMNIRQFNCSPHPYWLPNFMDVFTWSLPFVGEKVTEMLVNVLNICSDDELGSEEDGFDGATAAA
T1 sequence (P63098 whole entry partner): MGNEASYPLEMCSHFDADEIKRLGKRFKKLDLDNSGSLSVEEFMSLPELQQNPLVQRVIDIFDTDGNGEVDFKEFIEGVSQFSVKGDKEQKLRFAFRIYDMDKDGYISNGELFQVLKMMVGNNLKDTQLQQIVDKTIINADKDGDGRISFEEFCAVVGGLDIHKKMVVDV

- Kd: ~300 nM
Molecule: RCAN1^128-192: within SEQ ID NO: 2; includes RCAN1^128-164 and the TxxP site

- binding to calcineurin (in words): does not interact directly
B1: RNA-binding domain (amino acid positions 1-88): structured N-terminal RNA-binding domain of RCAN1, amino acid positions 1-88 (protein, UniProt P53805 1-88, looked up, fragment)
chain: MEDGVAGPQLGAAAEAAEAAEARARPGVTLRPFAPLSGAAEADEGGGDWSFIDCEMEEVDLQDLPSATIACHLDPRVFVDGLCRAKFE

— US9453061B2, “Method and compositions for treatment of calcineurin-related diseases” (BROWN UNIVERSITY, priority 2014, dated 2016)
